# Test results taken from PMC5395579, “Fis Regulates Type III Secretion System by Influencing the Transcription of exsA in Pseudomonas aeruginosa Strain PA14”.
# B1: exsA promoter -10 box probe (original Fis site, exsB-exsA intergenic) (dsDNA)
# DNA 1: TAATCCTGATTATTATAAAATCGACTCCGTG
# DNA 2: CACGGAGTCGATTTTATAATAATCAGGATTA
# Molecular target: Fis (UniProt A0A0H2ZIA5 1-107)
# Experiment: EMSA
# Details: protein: recombinant; chain copies: 2; label: none (ethidium bromide stain)
binder,measurement,value
B1,binding result,binds
